According to patent US20230406921A1 (MABWELL SHANGHAI BIOSCIENCE, published 2023):

Columns and labels:
[1] = molecular target: T1, recombinant antigen of the extracellular region of CD47 (Sino Biological, Cat: 12283-H08H) (human, UniProt Q08722 19-139); assay: Fortebio BLI, antibody on AHC sensor, CD47 extracellular region 100 nM;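 note: antibody held on the sensor through anti-human Fc capture, CD47 antigen in solution, association and dissociation phases each lasting 300 s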
T1 construct: extracellular domain; also called recombinant CD47 extracellular region; CD47 recombinant protein
Method: (§1) The affinity between the obtained mutant antibody and the CD47 recombinant protein was determined by Fortebio. The antibody was immobilized on the surface of a sensor with the anti-human Fc capture antibody (AHC Sensor), and reacted with the recombinant antigen of the extracellular region of CD47 (with a working concentration of 100 nM) in the liquid phase. The duration for binding and dissociation was both 300 seconds. The kinetic parameters were determined.

[2] = molecular target: T1, recombinant antigen of the …; assay: Fortebio BLI, antibody on AHC sensor, CD47 extracellular region 100 nM; Table 6 (heavy chain mutant series)
Method: as §1

[3] = molecular target: T1, recombinant antigen of the …; assay: Fortebio Octet QKe, antibody on AHC sensor, CD47 100 nM in solution
Method: The affinity of the antibody was determined by Octet QKe instrument of Fortebio Company. […] The kinetic parameters were determined.

T1 sequence (Q08722 19-139 limits assumed): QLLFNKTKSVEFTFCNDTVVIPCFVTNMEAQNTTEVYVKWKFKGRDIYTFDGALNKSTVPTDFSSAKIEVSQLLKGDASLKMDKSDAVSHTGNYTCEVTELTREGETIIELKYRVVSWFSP

koff [1]: 0.000226 s⁻¹ | kon [1]: 315000 M⁻¹ s⁻¹ | Kd [2]: 0.719 nM | Kd [3]: 7.03 nM | koff [3]: 0.00108 s⁻¹ | kon [3]: 154000 M⁻¹ s⁻¹
B1: hz140-H/hz182-L (antibody, V domains shown)
VH: QVQLVQSGAEVKKPGASVKVSCKASGYKFTNYVMHWVRQAPGQRLEWMGYINPYNDGIKYNEKFTGRVTITRDTSASTAYMELSSLRSEDTAVYYCAREGDFYANYGRLGFAYWGQGTLVTVSS
VL: DIQMTQSPSSLSASVGDRVTITCRASQDISNYLNWYQQKPGKAPKLLLYYTSRLHSGVPSRFSGSGSGTDYTLTISSLQPEDFATYFCQQGAGRPYTFGGGTKVEIK
notes: Hybrid antibody: heavy chain of hz140 with the light chain of hz182
